# Test results taken from the DeepSol protein solubility set.
# Assay: soluble on expression in E. coli; label from the status in PepcDB or PDB records
row,Sequence,soluble on expression in E. coli
1,MAFPAGFGWAAATAAYQVEGGWDADGKGPCVWDTFTHQGGERVFKNQTGDVACGSYTLWEEDLKCIKQLGLTHYRFSLSWSRLLPDGTTGFINQKGIDYYNKIIDDLLKNGVTPIVTLYHFDLPQTLEDQGGWLSEAIIESFDKYAQFCFSTFGDRVKQWITINEANVLSVMSYDLGMFPPGIPHFGTGGYQAAHNLIKAHARSWHSYDSLFRKKQKGMVSLSLFAVWLEPADPNSVSDQEAAKRAITFHLDLFAKPIFIDGDYPEVVKSQIASMSQKQGYPSSRLPEFTEEEKKMIKGTADFFAVQYYTTRLIKYQENKKGELGILQDAEIEFFPDPSWKNVDWIYVVPWGVCKLLKYIKDTYNNPVIYITENGFPQSDPAPLDDTQRWEYFRQTFQELFKAIQLDKVNLQVYCAWSLLDNFEWNQGYSSRFGLFHVDFEDPARPRVPYTSAKEYAKIIRNNGLEAHL,soluble
2,MAFVPPQAGYDRAITVFSPDGRLFQVNYAREAVKRGATAVGVKCNEGVVLAVEKRITSRLIEPESYEKIFQIDDHIAAASSGIIADARVLVNRARLEAQIHRLTYGEPAPLAVIVKKICDLKQMHTQYGGVRPFGAALLMAGVNEKPELYETDPSGAYFAWKAVAIGSGRNTAMAIFEEKYKDDMSLEEAIKLAIFALAKTMEKPSAENIEVAIITVKDKKFRKLSREEIEKYLNEVMKEVEEEEVKEKEEDYSELDSHY,soluble
3,MAGAGGQRNSEHVLCDACYFEEFDLVDAPDTIQVRVCSRCGAVHKGNRWVDIGAEDYTDIAVEQVSEALGIHVDAQSVAWQVAPEQLDKNNIRMHAEFSGVIRGTPVTEEVTVPVRISRQTCKRCGKIAGGSFASIVQVRADGRDPTDDERERAEEIAQEYVAAREETGDRNAFITETKSVDDGLDMKISTNQMGLGIAKRITAQLGGSYSDSRRLISEDEDGQELYRMTYAVRLPRYRQGEVIDPEDGDGPVLVRSVQGNLKGVRLATGEDYEASFEAGETPDARRLGFREDGQQTTLVAIEDERAVQVLDPETFESKTVPRPDYLDIDADEVPVLKSHAGLHILPAADADTDELEHHHHHH,not soluble
4,MAGDPMPKNKILIYLLSTTLVLPTLVSPTAYADTPQKDTTAKTTSHDSKKSNDDETSKDTTSKDIDKADNNNTSNQDNNDKKFKTIDDSTSDSNNIIDFIYKNLPQTNINQLLTKNKYDDNYSLTTLIQNLFNLNSDISDYEQPRNGEKSTNDSNKNSDNSIKNDTDTQSSKQDKADNQKAPKSNNTKPSTSNKQPNSPKPTQPNQSNSQPASDDKANQKSSSKDNQSMSDSALDSILDQYSEDAKKTQKDYASQSKKDKNEKSNTKNPQLPTQDELKHKSKPAQSFNNDVNQKDTRATSLFETDPSISNNDDSGQFNVVDSKDTRQFVKSIAKDAHRIGQDNDIYASVMIAQAILESDSGRSALAKSPNHNLFGIKGAFEGNSVPFNTLEADGNKLYSINAGFRKYPSTKESLKDYSDLIKNGIDGNRTIYKPTWKSEADSYKDATSHLSKTYATDPNYAKKLNSIIKHYQLTQFDDERMPDLDKYERSIKDYDDSSDEFKPFREVSDSMPYPHGQCTWYVYNRMKQFGTSISGDLGDAHNWNNRAQYRDYQVSHTPKRHAAVVFEAGQFGADQHYGHVAFVEKVNSDGSIVISESNVKGLGIISHRTINAAAAEELSYITGKLEHHHHHH,soluble
5,MAGDPMTPTQNVPEDRIQIGQLRSAYGLNGWLWVYSNTEPMSNMFDYLPWFIETKAGWQTVDVKRWKPHGKGLVVSLKNVSDRNAAESLIGSTIWVAKSQLPKTDVDEYYWSDLKGLTVLGLDEEEQEVNLGQIHELFETGANDVMVVRATADSVDAEERMIPWHKDVVQRVDLEAGRIYVNWGVDYLEHHHHHH,soluble
6,MAGDPMTYRDFIGRLKENGKLVEIQQPVSPIFEASRIAKKTKGPVLFHNVSGSKVIMNLLGSRDELSSMLGVPKEEIIKKLSEVSPEGEVRLVPGSPTLEVIESEVDLTKLPILTHFEKDGAPYITAGIVVSEYEGVMNASIHRLMLVGKDKLAARLVPPRHTYLLHKKAAEKGETLPVAIVLGCDPTIIYATSTRVPAGKEFEYAAALRGTPVEVFECSNGIKVPHSEIILEGYIDTKERVDEGPFVDITGTYDMVRKEPVIHITRIIHRKDPIYHGILPAGPEHLLMMGVPYEPRIYRAVGEVTTVKNVVLTEGGCCYLHAVVQIEKQTEGDAKNAIMAAFAAHTSLKHVVVVDEDINIFDPNDVEFAIATRVKGDMDILTITNVRGSSLDPRGASDGTTTKVGIDATKVLIEKENFERAIIPEELEHHHHHH,not soluble
7,MAGEEINEDYPVEIHEYLSAFENSIGAVDEMLKTMMSVSRNELLQKLDPLEQAKVDLVSAYTLNSMFWVYLATQGVNPKEHPVKQELERIRVYMNRVKEITDKKKAGKLDRGAASRFVKNALWEPKSKNASKVANKGKSKS,not soluble
8,MAGNFDSEERSSWYWGRLSRQEAVALLQGQRHGVFLVRDSSTSPGDYVLSVSENSRVSHYIINSSGPRPPVPPSPAQPPPGVSPSRLRIGDQEFDSLPALLEFYKIHYLDTTTLIEPVSRSRQGSGVILRQEEAEYVRALFDFNGNDEEDLPFKKGDILRIRDKPEEQWWNAEDSEGKRGMIPVPYVEKYRPASASVSALIGGNQEGSHPQPLGGPEPGPYAQPSVNTPLPNLQNGPIYARVIQKRVPNAYDKTALALEVGELVKVTKINVSGQWEGECNGKRGHFPFTHVRLLDQQNPEEDFS,soluble
9,MAGYDVVVVGGGHAGLEAAWAAAALGVRVALVTVNPDRIGMMPCNPAVGGPGKSQLVAEVVALGGLMGRAADAAAIHTRVLNRSKGPAVQSLRVQVDRDLYALKAQEILAERPVEVLRGEVAALWVEGGRLLGVRTVDGRTLPAKAVVVAGGTFLSGVVWYGRKSRPAGRQGEPPARFLSQSLKAVGHTLRRFKTGTPPRIRADSVDFGRLEVVPPEVPPGSFTGNPGPHAARLPTWQTRTTERTHRLILENLHLSPLYAGDIQGIGPRYCPSIEDKVVRFADKESHLLFVEPDGLSTTEVYLQGFSSSLPPELQEEMVRSLPGFERAVIQRYAYAVEYDSLDPTELTRGLQSRFLPGLFSAGQVNGTSGYEEAAAQGLLAGLNAARFALGLPEVHLPRESGYIGVLVDDLVGRGTDEPYRMMTSRVELRLLCRADNADERLTPLAVAWGLRPREDLERVEAKYRRVAAELRRLEALRVEGVSGLQWLRRPENTYRALAERFPPPEPLSPEEAYQVEVRAKYAGYIERQERLREKMRDLEAFRIPEGMDFPKVPGLSREAAEKLSRHRPKSLAEAARIPGVRDSDLTALAVHLRRGA,not soluble
10,MAGYGAKGIRKVGAFRSGLEDKVSKQLESKGIKFEYEEWKVPYVIPASNHTYTPDFLLPNGIFVETAGLWESDDRKKHLLIREQHPELDIRIVFSSSRTKLYKGSPTSYGEFCEKHGIKFADKLIPAEWIKEPKKEVPFDRLKRKGGKK,soluble
11,MAHDLARGDKSDLRDKVVKPITNNVSVLVMGVDESDVRGKEYGDAIRTDALLLATFNKDSKTVKLLSIPRDTYTYIPVEKKKDKITHAHAYGSTKNGKDGGPQASIDAVEKLLNVPVDYFVKFNFKSFMKIVDDLGGIEVDVPVEFTEQDSNDNADAIHLKKGVQKLNSEEALALARTRHIDSDAMRGQRQQLVIEAILKKLTSVGSVTKVGNIIDDINGQFVTNLTFDDMLSFYKYGSDSEIEKLQIQGEDCYMAKGLEHHHHHH,soluble
12,MAHHHHHHHRSDASVIVVGAGPAGLMLAGELRLGGVDVMVLEQLPQRTGESRGLGFTARTMEVFDQRGILPAFGPVETSTQGHFGGRPVDFGVLEGAHYGVKAVPQSTTESVLEEWALGRGAELLRGHTVRALTDEGDHVVVEVEGPDGPRSLTTRYVVGCDGGRSTVRKAAGFDFPGTSASREMFLADIRGCEITPRPIGETVPLGMVMSAPLGDGVDRIIVCERGAPARRRTGPPPYQEVAAAWQRLTGQDISHGEPVWVSAFGDPARQVSAYRRGRVLLAGDSAHVHLPAGGQGMNVSVQDSVNLGWKLAAVVSGRAPAGLLDTYHEERHPVGRRLLMNTQAQGMLFLSGDEMQPLRDVLSELIRYDEVSRHLAGMVSGLDIRYEVDGGDHPLLGMRMPHQELVRAHGKTSTTELLHPARGVLLDIADDAEVREAATGWSDRVDIVTASLHDAPPQGPLSDARAVLVRPDGYVAWISPGSRAGLTEALDRWFGPAR,soluble
13,MAHHHHHHMAAPSHQHSLVLERSTCHHYYHCVLYDILFDLPVREIAAQVVPCKDSNIVQRLTSADCRVVPHQLHVYKEPLEKKFGYVSFFVHRAPHSSTAADDVHRLVCEWVAVDLASQLATVQCKVQLAQPPECHSSEPFLNAFRLKCPLLDPTLAADTKKLETFVLTRVRFGQHCGNASVNQLNAVHCDDAKSAASAGSCGTETEMCTDDGLTATEGELDAGARSATRTLDEHVWKCVGTFLIASLSPKELVWLKKQLPSFPPLRIANGDMDTAYCDEAKLAQFFETSLAPLFTVDEVVEAAALNTVNSEA,not soluble
14,MAHHHHHHMAASLSSSPVRHPIVDNAAVPAASHRIPPPLNGFAFLEHRRSALSHDTFIARDVRQQQHPEQQDNDPAKVIIRVYALEYLRRDEECRFALERECLTARLVVHPHLLPLGAPFASKTDLFVVEKYCAGGDLYELMVSLAKEDPIASEMGAAKGEAPPRSSTGLPTNTVKRFMRELLSAVQYLHRTCGLVHRNIKLETLFIDEEQHLRLGGFGLCAVLPPPSVVTGDREGALDAPDAPEDTASSSHEPLRLCCGSKHYAAPELVQGHPYQGEGVDAWACGVVLFALLTSCFPFDSDDGDEALFRLLCGDVEAHLAQHPAMAAIEDPQACDLVRNLLRPNPNARYTVSEALEHPYLWVA,not soluble
15,MAHHHHHHMALRGVPIRLGVHRVGYTHPSTLPVPCAQRWDLRLARARIFQEYIEEKAPGAWQLEDERSMSPEFKTFTGYPMREMRPGYGQNLPDFIMKKRLPNNTHYELFARRDIPNEENAMYGKYLYDMTVHGTSLPSTYRMHKDINKAQRNDRKLSGNRFRVLCSSGAKKPPSGWEPIPDATEEEE,not soluble
16,MAHHHHHHMASQKPEDVTVSDGMLANLEREFNEAMRALEGHVKFVCFREEYEKLHRALLNSHESEKRLVRRCQQLTQELMSNAAKMQAAVKLAQDDHTTIEALKKETEKAWRMVDVANEKDARAKETIKKLREEVFSLQEIVENGTELTPTQTATLEELKLEKKRMQSEYDELVKQMETLTRETFELGHKMKEAEEEMMKHQEELRRVTDREKTVRQEYEKELRARDRSNLQLREQLLLVQQREKELKSHEQLHSKLSSAVNLLRLQLQEDQNRRQALAQKIESAERQLYHTQQSYDDAVDTREALNERHREVRKEITEAEKKAVDITAEKQRTHRVRDNDYKELCRLVQQNEDIRRDQTNLERQRLNVEKRIEMARREKEDLCRAFEMMQREKDSLKKVSEKEREKMQIMKN,soluble
17,MAHHHHHHMATVYTSVPGKDFAKGVTLDEANRIVRVDAGLPLLSALQVGMIVRSIGGVPVGDGRCEQARHHSNRSQVLVVLGAPPKDEFDLCSDDDDAANLKPPSTLPPLPPEFNNSVAQNSSGVVYEATVKCGEGGCVIIMCEGANPALAITLAAEKAKAEVMYIDTVARMKTRQTLENAGEVLKKSLEKGLWIYVEQATKSITLLRQISDCIMEVRAAGKMHAQSRVLLMCEPHPHFPEALMRGSVTLRSRLQNNNMAEVDIREDLSESAHRKQAIHGDDVASSETAAKPEVTKTRKKVRISNQVNIVHLEKSTFMEMSASAQPPLESGTSHDGISRVAKYSFGSNENLISLSYVRDHRFAIGTNSGYVVLIDRNGLPLIQFRPHKACIWDVSFSSQFDFSTACEDGTSVIYKYSLANQELTTVSVASFQNDVFAVTYANPNDVNSGVLSGGLSATVCVLHSDRQNSSFIACRTSIQAMCATQMNQVIVGGGTGACTLIDTNHCVVTDITHAHNKKVPAVGTHGNVAVTGGFDCVLRLWDVRNGFHLTSQRQLNEVITAVAMNERYISACSGSSLYVWDPRKMDRTLAVKANAWKDLTRGLVLDGSTIVTASVDGVARIWEVS,not soluble
